Experimental findings from patent US6524820B1, “Lectins and coding sequences” (University of Georgia Research Foundation, Inc., priority 1997, dated 2003) are described below.

Data set [1] in a line: Melibiose affinity chromatography (binding to immobilized melibiose). The following applies: in the presence of Ca2+. The protocol:
The rabbit, mouse, Xenopus laevis heart extracts, and various in vitro translation products were applied to a column of immobilized melibiose-agarose to analyze carbohydrate binding specificity. The heart extracts of rabbit, mouse, and Xenopus laevis were prepared by the method as described above and applied to a melibiose affinity column (total volume, 1 ml on Econo column) that was pre-equilibrated with TCS. After washing with 10 ml of TCS containing 0.3 M sucrose, bound protein was eluted with TCS containing 0.1 M EDTA. One ml of each fraction was collected and subjected to western blotting followed by 4-15% SDS-PAGE. Each 30 μl of in vitro translation product was diluted with 2×TCS (1:1) and applied to the melibiose column using same method. After separation of fractions on 4-15% SDS-PAGE, the results were analyzed by autoradiography.

The test system of data set [2] is trypsinized, glutaraldehyde-fixed rabbit erythrocytes. Nature of the data set: Erythrocyte agglutination assay. The format is cell-based. The protocol:
The assay was performed essentially as described using trypsinized, glutaraldehyde-fixed rabbit erythrocytes [Barondes and Roberson (1987) Methods Enzymol. 138, 516-20] in TCS buffer (10 mM Tris, pH 7.6, 10 mM CaCl2, 150 mM NaCl). To compare the agglutination properties of both the purified and recombinant lectins, the two lectins were assayed under similar conditions. Because the eluted recombinant lectin was in 8 M urea, a solution of purified non-recombinant lectin was also brought to 8 M with a concentrated urea solution. The agglutination assay was performed using […] of either recombinant or native XL35 lectin in […] TCS and 8 M urea was added to wells of a 96-well microtiter plate. Next, […] of TCS alone or TCS containing 0.4 M EDTA or 1.0 M melibiose or 1.0 M sucrose was added to the wells and mixed with the lectin solution. To this solution, 50 ml of a 1:1 suspension of trypsinized, glutaraldehyde-fixed rabbit erythrocytes in TCS was added and the contents of the wells were mixed by trituration. The final concentration of urea in the wells was 2 M, while that of EDTA was 0.10 M and that of melibiose and sucrose were 0.25 M. Agglutination activity was scored after 1.5 hr. at room temperature using an inverted microscope on low power. […]

Data set [3] is described as follows: Solubility of recombinant lectins in urea. The data set is classed as physicochemical. The following applies: bacterially expressed recombinant lectin.
Description: Expression of human HL-3 and HL-13 coding sequences was performed using the same method for expression of XL-35. […] Purification and renaturation carried out as for XL35.

“Also recorded” adds a separate entry of the source.

B1: HL-13: human homolog of XL35 expressed in small intestine, SEQ ID NO:6 (protein)
chain: MLSMLRTMTRLCFLLFFSVATSGCSAAAASSLEMLSREFETCAFSFSSLPRSCKEIKERCHSAGDGLYFLRTKNGVVYQTFCDMTSGGGGWTLVASVHENDMRGKCTVGDRWSSQQGNKADYPEGDGNWANYNTFGSAEAATSDDYKNPGYYDIQAKDLGIWHVPNKSPMQHWRNSALLRYRTNTGFLQRLGHNLFGIYQKYPVKYRSGKCWNDNGPAIPVVYDFGDAKKTASYYSPYGQREFVAGFVQFRVFNNERAANALCAGIKVTGCNTEHHCIGGGGFFPQGKPRQCGDFSAFDWDGYGTHVKSSCSREITEAAVLLFYR
In the case of B1, the “binding to immobilized melibiose” value in data set [1] was “no in vitro translation products of HL-3 and HL-13 bound; also recorded: do not appear to bind specifically”.

B2: HL-3: human calcium-dependent lectin family member, homolog of XL35, SEQ ID NO:4 (protein)
chain: MNQLSFLLFLIATTRGWSTDEANTYFKEWTCSSSPSLPRSCKEIKDECPSAFDGLYFLRTENGVIYQTFCDMTSGGGGWTLVASVHENDMRGKCTVGDRWSSQQGSKADYPEGDGNWANYNTFGSAEAATSDDYKNPGYYDIQAKDLGIWHVPNKSPMQHWRNSSLLRYRTDTGFLQTLGHNLFGIYQKYPVKYGEGKCWTDNGPVIPVVYDFGDAQKTASYYSPYGQREFTAGFVQFRVFNNERAANALCAGMRVTGCNTEHHCIGGGGYFPEASPQQCGDFSGFDWSGYGTHVGYSSSREITEAAVLLFYR
With B2, in data set [1], the “binding to immobilized melibiose” value is “no in vitro translation products of HL-3 and HL-13 bound; also recorded: do not appear to bind specifically”.

B3: XL35: soluble, calcium-dependent lectin from Xenopus laevis oocytes, SEQ ID NO:2 (protein)
chain: MLVHILLLLVTGGLSQSCDPVVIVASKNMVKQLDCDKFRNCKEIKDSNEEAQDGIYTLTSPDGISYQTFCDMTTNGGGWTLVASVHENNMAGKCTIGDRWSSQQGNRADYPEGDGNWANYNTFGSAGGATSDDYKNPGYYDIEAYNLGVWHVPNKTPLSVWRNSSLQRYRTTDGILFKHGGNLFSLYRIYPVKYGIGSCSKDSGPTVPVVYDLGSANLTASFYSPGFRSQFTPGYIQFRPINTEKAALALCPGMKMESCNVEHVCIGGGGYFPEADPRQCGDFAAYDFNGYGTKKFNSAGIEITEAAVLLFYL
On to B3, for which the “agglutination activity retained relative to assay in TCS alone” value in data set [2] (after 1.5 hr in TCS plus 2 M urea) is 25-50%. In data set [2] (in 2 M urea), the “agglutination of trypsinized, fixed rabbit erythrocytes” value is on record as “active”. Further, the “concentration of urea required for solution” value in data set [3] is recorded as 2 M.
